Test results from publication PMC12170185, “Dynamic RNA binding and unfolding by nonsense-mediated mRNA decay factor UPF2” (RNA, 2024).

How the values were obtained:
[1] = molecular target: T1, UPF2 MIF4G domain-3 (residues 761-1054) (UniProt Q9HAU5 761-1054); assay: native gel or EMSA; 250 nM HEX-labelled hp-RNA mixed with the proteins, 1 h on ice; native 4%-20% Tris-glycine gel, 45 min at 150 V, 4°C; HEX label of the RNA detected; RNA diluted in 25 mM HEPES pH 7.45, 100 mM NaCl, 5% glycerol; details: both partners purified
T1 construct: UPF2, third MIF4G domain, residues 761-1054; Construct from Kadlec et al. 2004; TEV site and His6 tag as said for m1; also called MIF4G-D3; D3; source: E. coli BL21 Rosetta (DE3), purified (Ni-NTA, heparin, SEC)
T1 sequence (looked up): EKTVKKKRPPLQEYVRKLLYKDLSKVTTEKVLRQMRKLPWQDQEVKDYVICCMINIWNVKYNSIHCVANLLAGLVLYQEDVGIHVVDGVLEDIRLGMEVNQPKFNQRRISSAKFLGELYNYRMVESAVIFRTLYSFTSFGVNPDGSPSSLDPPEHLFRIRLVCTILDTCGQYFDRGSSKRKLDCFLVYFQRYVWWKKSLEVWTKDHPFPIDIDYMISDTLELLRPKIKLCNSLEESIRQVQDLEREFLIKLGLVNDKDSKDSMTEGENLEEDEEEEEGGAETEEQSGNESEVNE

[2] = molecular target: T2, UPF2L (near full-length UPF2, residues 121-1227) (UniProt Q9HAU5 121-1227); assay: as above; details: both partners purified
T2 construct: Construct from Neu-Yilik et al. 2017; also called up-frameshift protein 2; source: E. coli BL21 Rosetta (DE3), purified (Ni-NTA, heparin, SEC)
T2 sequence (looked up): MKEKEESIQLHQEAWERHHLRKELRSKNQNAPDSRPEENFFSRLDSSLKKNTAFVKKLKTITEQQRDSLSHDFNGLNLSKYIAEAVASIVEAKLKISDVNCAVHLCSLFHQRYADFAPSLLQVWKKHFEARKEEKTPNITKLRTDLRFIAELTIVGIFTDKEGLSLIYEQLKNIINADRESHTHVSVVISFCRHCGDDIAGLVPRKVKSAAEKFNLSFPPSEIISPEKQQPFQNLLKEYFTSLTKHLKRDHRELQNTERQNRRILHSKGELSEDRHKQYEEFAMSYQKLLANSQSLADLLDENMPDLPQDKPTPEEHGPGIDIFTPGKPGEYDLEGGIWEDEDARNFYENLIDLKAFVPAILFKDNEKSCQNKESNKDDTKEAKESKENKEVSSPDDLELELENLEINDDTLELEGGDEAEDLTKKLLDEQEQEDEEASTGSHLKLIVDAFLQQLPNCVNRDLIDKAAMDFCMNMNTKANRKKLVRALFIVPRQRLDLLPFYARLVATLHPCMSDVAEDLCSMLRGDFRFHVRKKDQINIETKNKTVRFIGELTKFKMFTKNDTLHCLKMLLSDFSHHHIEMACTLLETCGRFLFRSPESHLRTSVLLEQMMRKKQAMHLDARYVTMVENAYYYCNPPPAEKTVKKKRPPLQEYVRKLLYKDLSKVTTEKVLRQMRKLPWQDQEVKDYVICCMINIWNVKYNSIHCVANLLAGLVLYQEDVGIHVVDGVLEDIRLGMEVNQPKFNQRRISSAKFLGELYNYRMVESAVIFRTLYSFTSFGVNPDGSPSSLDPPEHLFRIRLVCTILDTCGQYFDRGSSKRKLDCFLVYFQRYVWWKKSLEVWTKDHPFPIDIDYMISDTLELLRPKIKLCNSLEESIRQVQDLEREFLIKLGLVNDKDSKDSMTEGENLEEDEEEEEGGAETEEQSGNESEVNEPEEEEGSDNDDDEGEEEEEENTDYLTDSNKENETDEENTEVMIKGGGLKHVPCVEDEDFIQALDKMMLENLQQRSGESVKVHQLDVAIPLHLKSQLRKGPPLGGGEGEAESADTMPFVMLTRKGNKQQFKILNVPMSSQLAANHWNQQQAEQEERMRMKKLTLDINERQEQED

- binding result [1]: binds
- binding result [2]: binds
B1: UPF3B (residues 41-262) (domain or fragment, UniProt Q9BZI7 41-262, looked up)
chain: DRNKEKKEALSKVVIRRLPPTLTKEQLQEHLQPMPEHDYFEFFSNDTSLYPHMYARAYINFKNQEDIILFRDRFDGYVFLDNKGQEYPAIVEFAPFQKAAKKKTKKRDTKVGTIDDDPEYRKFLESYATDNEKMTSTPETLLEEIEAKNRELIAKKTTPLLSFLKNKQRMREEKREERRRREIERKRQREEERRKWKEEEKRKRKDIEKLKKIDRIPERDKL
notes: UPF3B residues 41-262: RNA-recognition motif, NOPS-Like domain and the first coiled coil-like domain; source: E. coli, purified as described (Bufton et al. 2022)
